Consider twelve molecules from article PMC6555819, “Comprehensive study of nuclear receptor DNA binding provides a revised framework for understanding receptor specificity”.

For data set [1], the target named is RXRa (Homo sapiens, UniProt P19793). Description: no ligand; PBM; 180 nM; PBS pH 7.4, 2% milk, 0.02% Triton X-100, 1 mM DTT, BSA, 0.4 mg/ml salmon testes DNA. As to conditions: tags: His cleaved; chain copies: 2; label: surface-attached array probe.
The target in data set [2] is RARg:RXRa (Homo sapiens, UniProt P13631;P19793 full;full). Description: no ligand; PBM; 270 nM : 90 nM RXRa; PBS pH 7.4, 2% milk, 0.02% Triton X-100, 1 mM DTT, BSA, 0.4 mg/ml salmon testes DNA. Particulars: tags: His kept;His cleaved; copies: 1;1; label: surface-attached array probe. The method, boiled down: (§1)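 Ligand-free nuclear receptor dimers were bound for 1 h to custom Agilent 4×180K protein-binding microarrays. Detection used antibodies against each partner (one per run). Binding z-scores rest on regression-normalized fluorescence, with random background probes as the reference.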

Data set [3] addresses PPARa:RXRa (Homo sapiens, UniProt Q07869;P19793 full;full). The description is as above. As to conditions: tags: GST kept;His cleaved; copies: 1;1; label: surface-attached array probe. An outline of the steps: as §1

Chain of RXRa (P19793 whole entry): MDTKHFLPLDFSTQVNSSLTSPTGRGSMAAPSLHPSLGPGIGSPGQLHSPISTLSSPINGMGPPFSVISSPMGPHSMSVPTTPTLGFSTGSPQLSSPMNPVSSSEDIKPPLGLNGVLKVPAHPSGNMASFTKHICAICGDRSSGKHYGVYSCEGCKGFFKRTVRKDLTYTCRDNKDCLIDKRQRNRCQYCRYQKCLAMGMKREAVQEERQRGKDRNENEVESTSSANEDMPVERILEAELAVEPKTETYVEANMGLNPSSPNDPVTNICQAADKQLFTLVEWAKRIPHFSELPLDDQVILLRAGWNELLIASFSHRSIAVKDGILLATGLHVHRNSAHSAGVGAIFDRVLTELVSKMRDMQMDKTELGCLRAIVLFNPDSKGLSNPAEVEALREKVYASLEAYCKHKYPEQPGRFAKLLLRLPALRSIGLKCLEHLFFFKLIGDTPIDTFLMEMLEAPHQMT
Chain of RARg:RXRa (P13631 whole entry, chain 1 of 2): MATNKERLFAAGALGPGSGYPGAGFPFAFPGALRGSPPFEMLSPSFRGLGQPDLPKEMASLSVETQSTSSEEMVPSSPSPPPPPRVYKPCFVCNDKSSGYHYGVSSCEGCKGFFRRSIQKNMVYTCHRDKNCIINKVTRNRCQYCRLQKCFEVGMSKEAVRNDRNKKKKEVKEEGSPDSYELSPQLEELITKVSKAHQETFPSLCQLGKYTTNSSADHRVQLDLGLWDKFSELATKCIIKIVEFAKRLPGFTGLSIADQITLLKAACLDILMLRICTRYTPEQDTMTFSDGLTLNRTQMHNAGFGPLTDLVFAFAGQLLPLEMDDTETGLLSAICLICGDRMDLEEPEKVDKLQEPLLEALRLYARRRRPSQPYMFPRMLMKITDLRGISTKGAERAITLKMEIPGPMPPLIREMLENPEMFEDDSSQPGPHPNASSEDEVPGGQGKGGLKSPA
Chain of RARg:RXRa (P19793 whole entry, chain 2 of 2): as the sequence (P19793 whole entry) above
Chain of PPARa:RXRa (Q07869 whole entry, chain 1 of 2): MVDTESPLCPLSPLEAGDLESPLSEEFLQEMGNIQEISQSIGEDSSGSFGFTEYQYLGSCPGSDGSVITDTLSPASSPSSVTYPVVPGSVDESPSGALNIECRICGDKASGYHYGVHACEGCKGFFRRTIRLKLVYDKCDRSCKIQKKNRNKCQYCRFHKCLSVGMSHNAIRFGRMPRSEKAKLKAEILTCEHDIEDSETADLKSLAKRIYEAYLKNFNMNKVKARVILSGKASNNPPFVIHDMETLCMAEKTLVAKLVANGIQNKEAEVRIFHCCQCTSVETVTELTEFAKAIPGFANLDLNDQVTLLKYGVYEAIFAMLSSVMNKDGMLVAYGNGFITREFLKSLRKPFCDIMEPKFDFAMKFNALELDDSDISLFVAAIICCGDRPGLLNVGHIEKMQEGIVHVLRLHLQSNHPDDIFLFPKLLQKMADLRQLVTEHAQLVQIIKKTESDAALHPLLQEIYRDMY
Chain of PPARa:RXRa (P19793 whole entry, chain 2 of 2): as the sequence (P19793 whole entry) above

B1: NRC3_random_hg19_79_o1 (dsDNA)
DNA 1: GCCAGTGTCCTCCTGAGAATTGGTTGTGTTGGGCAGGCGATTGACAGCGTAGAATGAAGG
DNA 2: CCTTCATTCTACGCTGTCAATCGCCTGCCCAACACAACCAATTCTCAGGAGGACACTGGC
As for B1, in data set [1], the binding signal is -0.79 PBM z-score against 500 random probes.

B2: NRC3_wobSeed97_DR4_T8C_o1 (dsDNA)
DNA 1: GCCAAACCAGGTCACGAAAGGTCAAAGTCGAATGACGCGATTGACAGCGTAGAATGAAGG
DNA 2: CCTTCATTCTACGCTGTCAATCGCGTCATTCGACTTTGACCTTTCGTGACCTGGTTTGGC
In the case of B2, the binding signal in data set [2] is 8.22 PBM z-score against 500 random probes; in data set [1], 9.26 PBM z-score against 500 random probes.

B3: NRC3_random_hg19_366_o1 (dsDNA)
DNA 1: GCACTACTACTGCTGTTGAGAAACCTGCATTGTGGCGCGATTGACAGCGTAGAATGAAGG
DNA 2: CCTTCATTCTACGCTGTCAATCGCGCCACAATGCAGGTTTCTCAACAGCAGTAGTAGTGC
Take B3: the binding signal in data set [1] was -0.56 PBM z-score against 500 random probes.

B4: NRC3_wobSeed88_DR3_o1 (dsDNA)
DNA 1: GCTAGCCTAGGTCATGCGGGCCAGTATAGTGTCGGCGCGATTGACAGCGTAGAATGAAGG
DNA 2: CCTTCATTCTACGCTGTCAATCGCGCCGACACTATACTGGCCCGCATGACCTAGGCTAGC
For the molecule B4, the binding signal in data set [3] is 3.33 PBM z-score against 500 random probes; in data set [1] it was 3.04 PBM z-score against 500 random probes.

B5: NRC3_wobSeed27_DR1_G22C_o1 (dsDNA)
DNA 1: GCACTCGGAGGACAAAGGTCACAGCTACGCCAGTGAGCGATTGACAGCGTAGAATGAAGG
DNA 2: CCTTCATTCTACGCTGTCAATCGCTCACTGGCGTAGCTGTGACCTTTGTCCTCCGAGTGC
On to B5, for which the figures for the binding signal in data set [2] and in data set [1] were 7.47 PBM z-score against 500 random probes and 8.07 PBM z-score against 500 random probes, respectively.

B6: NRC3_random_hg19_226_o1 (dsDNA)
DNA 1: GCCATCCCATTTCTCTTCCCAAGGGATTTGAAAGAGGCGATTGACAGCGTAGAATGAAGG
DNA 2: CCTTCATTCTACGCTGTCAATCGCCTCTTTCAAATCCCTTGGGAAGAGAAATGGGATGGC
As to B6, the binding signal was -0.16 PBM z-score against 500 random probes in data set [2] and -0.08 PBM z-score against 500 random probes in data set [1].

B7: NRC3_random_hg19_248_o1 (dsDNA)
DNA 1: GCGTGTTCTACTGTACTGCAGCTGAGCCGACACTCAGCGATTGACAGCGTAGAATGAAGG
DNA 2: CCTTCATTCTACGCTGTCAATCGCTGAGTGTCGGCTCAGCTGCAGTACAGTAGAACACGC
As to B7, the binding signal was -0.34 PBM z-score against 500 random probes in data set [2] and -0.43 PBM z-score against 500 random probes in data set [1].

B8: NRC3_random_hg19_376_o1 (dsDNA)
DNA 1: GCTTCCTCTTCCTCTGTGCCTGTGTAGCCTCCATCCGCGATTGACAGCGTAGAATGAAGG
DNA 2: CCTTCATTCTACGCTGTCAATCGCGGATGGAGGCTACACAGGCACAGAGGAAGAGGAAGC
Regarding B8, in data set [1], the binding signal is -0.77 PBM z-score against 500 random probes.

B9: NRC3_random_hg19_21_o1 (dsDNA)
DNA 1: GCAACATTTCAGTATACTTTCTAGCAACTCTGGGTAGCGATTGACAGCGTAGAATGAAGG
DNA 2: CCTTCATTCTACGCTGTCAATCGCTACCCAGAGTTGCTAGAAAGTATACTGAAATGTTGC
For the molecule B9, the binding signal is 0.2 PBM z-score against 500 random probes in data set [3] and 0.34 PBM z-score against 500 random probes in data set [1].

B10: NRC3_random_hg19_34_o1 (dsDNA)
DNA 1: GCATGATGCCTCCTTGGAGAAGTCCTGCATTCATCCGCGATTGACAGCGTAGAATGAAGG
DNA 2: CCTTCATTCTACGCTGTCAATCGCGGATGAATGCAGGACTTCTCCAAGGAGGCATCATGC
In the case of B10, in data set [1], the binding signal was -0.46 PBM z-score against 500 random probes.

B11: NRC3_wobSeed61_DR2_G10C_o1 (dsDNA)
DNA 1: GCCGTCCAACGTCAGCAGGTCAGTGAAAGCGACGTGGCGATTGACAGCGTAGAATGAAGG
DNA 2: CCTTCATTCTACGCTGTCAATCGCCACGTCGCTTTCACTGACCTGCTGACGTTGGACGGC
Turning to B11, the binding signal in data set [3] is 0.49 PBM z-score against 500 random probes; in data set [1], 0.42 PBM z-score against 500 random probes.

B12: NRC3_random_hg19_95_o1 (dsDNA)
DNA 1: GCATCTTCAGTATGTTTCATTCAGTAGCTCAGTGGCGCGATTGACAGCGTAGAATGAAGG
DNA 2: CCTTCATTCTACGCTGTCAATCGCGCCACTGAGCTACTGAATGAAACATACTGAAGATGC
Turning to B12, the binding signal in data set [3] is -0.24 PBM z-score against 500 random probes; in data set [1], -0.26 PBM z-score against 500 random probes.
